Assay results from the nanobody polyreactivity screen of Harvey et al. (2022).

Test: yeast display, Sf9 membrane polyspecificity reagent, FACS + sequencing; frameworks hold sequencing errors
In short: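 Using colony PCR, genes from sorted yeast display clones were amplified, then sequenced on MiSeq at 2 × 250 and filtered by CDR length. The clones had been stained with 10% biotinylated, detergent-solubilized Sf9 membrane reagent for 1 hour at 4 °C and sorted by FACS into low and high (top ~1%) gates on anti-HA and streptavidin fluorescence. Polyreactivity labels come from the gate of origin.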
For “QVQLVESGGGLVQAGGSLRLSCAASGNTFVYNAMGWYRQAPGKERELVAGLTKTGGRTYYADSVKGRVTISRDNAKNTVYLQMNSLKPEETAVYYCAARPWNDGYYVGRFHMDYWGQGTQVTVSS”, the “polyreactivity (PSR sort gate)” value was “low polyreactivity”. In the case of “QVQLVESGGGLVQAGGSLRLSCAASGNTFVYNDMGWYRQAPGKERELVADIRYSGSTYYADSVKGRFTISRDNAKNTVYLQMNSLKPEDTAVYYCAKAYYVLSWMGYWGQGTQVTVSS”, the “polyreactivity (PSR sort gate)” value is reported as “low polyreactivity”. With “QVQLVESGGGLVQAGGSLRLSCAASGNTFWYYAMGWYRQAPGKERELVAAISWDGGITYYADSVKGRFTISRDNAKNTVYLQMNSLKPEDTAVYYCAAETNPKYRYTLDKYEYWGQGTQVTVSS” the “polyreactivity (PSR sort gate)” value was “high polyreactivity”. With “QVQLVESGGGLVQAGGSLRLSCAASGNTFYGYAMGWYRQAPGKERELVASITLSGDSTYYADSVKGRFTISRDNAKNTVYLQMNSLKPEDTAVYYCGGVYTYPLGYYHYTYDYWGQGPQVTVSS” the “polyreactivity (PSR sort gate)” value was “low polyreactivity”. In the case of “QVQLVESGGGLVQAGGSLRLSCAASGNTFYGYAMGWYRQAPGKERELVASITLSGDSTYYADSVKGRFTISRDNAKNTVYLQMNSLNPEETAVYYFNAQFTPRYWGGYDSWGQGTQVTVSS”, the “polyreactivity (PSR sort gate)” value is reported as “low polyreactivity”. With “QVQLVESGGGLVQAGGSLRLSCAASGNTFYGYAMGWYRQAPGKERELVASSTLSGDSTYYADSVKGRFTISRDNAKNTVYLQMNSLKPEDTAVYYCAGVYTYPLGYYHYTYDYWGQGTQVTVSS” the “polyreactivity (PSR sort gate)” value was “low polyreactivity”. For “QVQLVESGGGLVQAGGSLRLSCAASGNTFYGYARGWYRQAPGKERELVASITLSGDSTYYADSVKGRFTISRDNAKNTVYLPMNSLKPEDTAVYYCNADWYFQYPYDYWGQGTQVTVSS”, the “polyreactivity (PSR sort gate)” value was “low polyreactivity”. With “QVQLVESGGGLVQAGGSLRLSCAASGNTFYHYVMGWYRQAPGKESELVAAISRSGGSTYYADSVKGRFTISRDNAKNTVYLQMNSLKPEDTAVYYCAARTSIGLLYDYWGQGTQVTVSS” the “polyreactivity (PSR sort gate)” value was “high polyreactivity”. With “QVQLVESGGGLVQAGGSLRLSCAASGNTFYINTMGWYRQAPGKEREFVAAITWSGGPTYYADSVKGRFTISRDNAKNTVYLQMNSLKPEDTAVYYCAADSRGEDYYYWGQGTQVTVSS” the “polyreactivity (PSR sort gate)” value was “high polyreactivity”. For “QVQLVESGGGLVQAGGSLRLSCAASGNTFYKNTMGWYRQAPGKERELVAAISQRGTRTYYADSVKGRFTISRDNAKNSVYLQLYSLNPEDTAVYYCATDLSQVGFDYWGQGTQVTVSS”, the “polyreactivity (PSR sort gate)” value was “high polyreactivity”. With “QVQLVESGGGLVQAGGSLRLSCAASGNTFYRNAMGWYRQAPGKERELVAGISNGGSTNYEDSVKGRFTISRDNAKNSVYLQMNSLKPEDTAVYYFAKDEPKVSRAFDYWGQGTQVNVSS” the “polyreactivity (PSR sort gate)” value was “low polyreactivity”. In the case of “QVQLVESGGGLVQAGGSLRLSCAASGNTFYTYAMGWYRQAPGKERELVAAITSGGRTYADSVKGRFTISRDNAKNTVYLQMNSLKPEDTEVYYCAAEFPGFYYVYPGDYWGQGTQVTVSS”, the “polyreactivity (PSR sort gate)” value is reported as “low polyreactivity”. In the case of “QVQLVESGGGLVQAGGSLRLSCAASGNTFYWYVMGWYRQAPGKERELVARITSSGGSTNYADSVKGRFTISRDNAKNTVYLQMNSLKPEDTAVYYCAADDIYLYGGGTDYYYWGQGTQVTVSS”, the “polyreactivity (PSR sort gate)” value is reported as “low polyreactivity”. With “QVQLVESGGGLVQAGGSLRLSCAASGNTIIRYAMGWYRQAPGKERELVAAISYSGGRTYYADSVKGRFTISRDNAKNTVYLQMNSLKPEDTAVYYCNAASRYGGDYWGQGTQVTVSS” the “polyreactivity (PSR sort gate)” value was “low polyreactivity”. For “QVQLVESGGGLVQAGGSLRLSCAASGNTIRVYAMGWYRQAPGKERELVAAITWSGSRTYYADSVKGRFTISRDNAKNTVYLQMNSLKPEDTAVYYCAARFVRPAYNYWGQGTQVTVSS”, the “polyreactivity (PSR sort gate)” value was “high polyreactivity”. With “QVQLVESGGGLVQAGGSLRLSCAASGNTISYYAMGWYRQAPGKERELVAAISANGGSTYYADSVKGRFTISRDNAKNTVYLQMNSLKPEDTAVYYCNRRFLSRNQNEYDYWGQGTQVTVSS” the “polyreactivity (PSR sort gate)” value was “high polyreactivity”. With “QVQLVESGGGLVQAGGSLRLSCAASGNTLAANAMGWYRQAPGKERELVAAITYSGGSTYYADSVKGRFTISRDNSKNTVYLQMNSLKPLDTAVYYCAAEGYYSNYHYWGQGTQVTVSW” the “polyreactivity (PSR sort gate)” value was “low polyreactivity”. In the case of “QVQLVESGGGLVQAGGSLRLSCAASGNTLDAYAMGWYRQAPGKERELVAAITSGGSTYYADSVKGRFTISRDNAKNTVYLQMNSLKPEDTAVYYCNADGHPSDPCYDYWGQGTQVTVSS”, the “polyreactivity (PSR sort gate)” value is reported as “low polyreactivity”. In the case of “QVQLVESGGGLVQAGGSLRLSCAASGNTLDAYAMGWYRQAPGKERELVAAITSGGSTYYADSVKGRFTISRDNAKNTVYLQMNSLKPEDTAVYYCNADGHPSDPGYDYWGQGTQVTVSS”, the “polyreactivity (PSR sort gate)” value is reported as “low polyreactivity”. In the case of “QVQLVESGGGLVQAGGSLRLSCAASGNTLDVNAMGWYRQAPWKERELVAAITSGGSTNYADSVKGRFTISRDNAKNTVYLQMNSLKPEDTAVYYCAKGSGVTYVNETLNTDYGYWGQGTQVTVSS”, the “polyreactivity (PSR sort gate)” value is reported as “low polyreactivity”. In the case of “QVQLVESGGGLVQAGGSLRLSCAASGNTLIVNAMGWYRQAPGKERELVAAITRDGRTNYADSVKGRFTISRDNAKNTFYLQMNSLKPEDTAVYYCNALSADWFPEEDYWGQGTQVTVSS”, the “polyreactivity (PSR sort gate)” value is reported as “low polyreactivity”. With “QVQLVESGGGLVQAGGSLRLSCAASGNTLIVNAMGWYRQAPGKETELVAAITRDGRTNYADSVKGRFTISRDNAKNTVYLQMNSLKPEDTAVYYCAAEGVPDALDRDYWGQGTQVTVSS” the “polyreactivity (PSR sort gate)” value was “low polyreactivity”. For “QVQLVESGGGLVQAGGSLRLSCAASGNTLTPYTMGWYRQAPGKERELVAAINRSGGSTYYADSVKGRVTISRDNGKNTVYLQMNSLKPEDTAVYYCAAFGYYNFGYYYWGQGSQVTVSS”, the “polyreactivity (PSR sort gate)” value was “high polyreactivity”. In the case of “QVQLVESGGGLVQAGGSLRLSCAASGNTLTYNVMGWYRQGPGKERELVAAISGRGGRTYYADSVKGRFTISRDNAKNTVYLQMNSLKPEATAVYDCATRDRAGYYYWGQGTQVTVSS”, the “polyreactivity (PSR sort gate)” value is reported as “high polyreactivity”. For “QVQLVESGGGLVQAGGSLRLSCAASGNTLWRNAMGWSRQAPGKERELVATISSVGTYYADSVKGRFTISRDNAKNTVYLQMNSLKPEDTAVYYCAARIWAFYSRRYYWGQGTQVTVSS”, the “polyreactivity (PSR sort gate)” value was “high polyreactivity”. With “QVQLVESGGGLVQAGGSLRLSCAASGNTLYRNALGWYRQAPGKERELVAAIRLSGGSTYYADSVKGRFTISRDNAKNTVYLQMNSLKPEDTAVYYCAVRIRYYTGFYSWGQGTQVTVSS” the “polyreactivity (PSR sort gate)” value was “high polyreactivity”. In the case of “QVQLVESGGGLVQAGGSLRLSCAASGNTSPFYAMGWYRQAPGKERELVAAISANGGSTTYADSVKGRFTISRDNAKNTVYLQMNSLKPEDTALYYCNALSLLSDGAASVDQVTFDYWGQGTQVTVSS”, the “polyreactivity (PSR sort gate)” value is reported as “low polyreactivity”. With “QVQLVESGGGLVQAGGSLRLSCAASGNTVFKNAMVWYRQAPGKERELVAAISKRGGSTYYADSVKGRFTISRDNAKNTVYIQMNSLIPEDTAVYYCAADTFGVYASTYDYWGQGTQVTVSS” the “polyreactivity (PSR sort gate)” value was “high polyreactivity”. In the case of “QVQLVESGGGLVQAGGSLRLSCAASGPIFDGYVMGWYRQAPGKERELVAAISKSGARTYYADSVKGRFTISRDNAKNTVYLQMNSLKPEHTAVYYCARFSGVDNAYDYWGQGTQVTVSS”, the “polyreactivity (PSR sort gate)” value is reported as “high polyreactivity”. In the case of “QVQLVESGGGLVQAGGSLRLSCAASGPIFKRNDMGWYRQSHGKERELVAAISGSGGRTYYADSLKGRFTISRDNAKNTVYLQMNSLKPEDTAVYYCNAGGSYYARGMDYWGQGTQVTVSS”, the “polyreactivity (PSR sort gate)” value is reported as “high polyreactivity”. For “QVQLVESGGGLVQAGGSLRLSCAASGPIFRGYAMGWYRQAPGKERELVARITSGGRTYYADSVKGRFTISRDNAKNTVYLQMNSLKPEDTAVYYWATVGRGYDERHNYWGQGTQVTVSS”, the “polyreactivity (PSR sort gate)” value was “high polyreactivity”. For “QVQLVESGGGLVQAGGSLRLSCAASGPIFVHNAKGWYRQAPGTERELVAAISWRATRTYYADSVKGRFTISRDNAKNTVYLQMNSLKPEDTAVYYCAAVTPAYSTSTSSYDYWGQGTQVTVSS”, the “polyreactivity (PSR sort gate)” value was “high polyreactivity”.
